From paper PMC3237733 come the findings set out here.

The assay concerns the target dansylated-FadAc (Fusobacterium nucleatum 12230) (UniProt Q5I6B0). As to the kind of experiment: other fluorescence titration.

B1: GST-VE-cadherin_(415–534) (domain or fragment)
chain: KGQFFRVTKKGDIYNEKELDREVYPWYNLTVEAKELDSTGTPTGKESIVQVHIEVLDENDNAPEFAKPYQPKVCENAVHGQLVLQISAIDKDITPRNVKFKFILNTENNFTLTDNHDNTA
As to B1, the Kd is 15.9 µM. In other words, the double-digit micromolar range.

By Kd is commonly meant the equilibrium constant for the complex coming apart.
